Experimental findings from patent US20180340159 are described below.

The target of this data set is T1, propeptide of Rhizomucor miehei lipase (RmL).
T1 chain: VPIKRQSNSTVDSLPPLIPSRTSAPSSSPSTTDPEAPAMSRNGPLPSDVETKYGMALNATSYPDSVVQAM

B1: Rhizomucor miehei lipase (RmL) wild type mature protein (protein)
chain: SIDGGIRAATSQEINELTYYTTLSANSYCRTVIPGATWDCIHCDATEDLKIIKTWSTLIYDTNAMVARGDSEKTIYIVFRGSSSIRNWIADLTFVPVSYPPVSGTKVHKGFLDSYGEVQNELVATVLDQFKQYPSYKVAVTGHSLGGATALLCALDLYQREEGLSSSNLFLYTQGQPRVGDPAFANYVVSTGIPYRRTVNERDIVPHLPPAAFGFLHAGEEYWITDNSPETVQVCTSDLETSDCSNSIVPFTSVLDHLSYFGINTGLCT
Consider B1, for which the lipase hydrolytic activity (4-MU oleate), average slope; incubated with 5 µM TCEP came to 22 RFU/sec; the lipase hydrolytic activity (4-MU oleate), average slope; incubated with 5 uM TCEP + Model B came to 66 RFU/sec; the lipase hydrolytic activity (4-MU oleate), average slope; incubated with 1.35% Savinase + Model B was found to be 143 RFU/sec; the lipase hydrolytic activity (4-MU oleate), average slope; incubated with 2% NaSO2 was 28 RFU/sec. For the same protein, the lipase hydrolytic activity (4-MU oleate), average slope; incubated with 2% NaSO2 + Model B stood at 66 RFU/sec.
